{"source": "paper PMC9005580", "about": "“In silico structural, phylogenetic and drug target analysis of putrescine monooxygenase from Shewanella putrefaciens-95” (Journal of Genetic Engineering & Biotechnology, 2022)", "molecules": {"B1": {"name": "putrescine monooxygenase (SpPMO) (Shewanella putrefaciens) (protein)", "chain": "MTTLQREIDREIFDLLGIGIGPFNLGLAALSEPIDGFNCLFLDAKTSFDWHPGMLLKSSRLQTPFMSDLVTMADPTSRYSYLNFAKQTGRLYPFYIRENFFLPRHEYNLYCQWVSQQLSNLKFGFKVTQVDYNAGEGIYRVTGFDRRSGKTHTYQCRKLVLGTGTEPYLPKDCPIQDARIMHTASYMQQKTYLQSQSAITVIGSGQSAADLFYDLLPDIDTYGYQLNWMTRSPRFYPLEYTKLTLEMTSPDYVDYFHELTPNQRCSLIASQKQLYKGINSELINDIYDLLYQKRLLADFQCRLMKNAALTHIEPQANMLKLHFHHNEKNHTFEQETGAVILGTGYHYRLPEFISGIKQQVEFDDAGQLSVQRDYSIDIRGDIFVQNVGLHTHGISSPDLGMGCYRNSTILKAVLGYAPYHIEEHIAFQTFDPAKLASHQPCGVNAINTLNLKTKHFTKASNHTDTADAPHSLYPTQTATSSISAGTSSGAGTHMSVLMAPNKEAQ"}}, "key": {"[1]": {"molecular_target": "T1, putrescine monooxygenase (SpPMO) (Shewanella putrefaciens, UniProt A0A4D6BRL2)", "T1 construct": "gene pubA", "T1 sequence (A0A4D6BRL2 1-505)": "B1 chain", "experiment": "Csaky iodine oxidation product-formation assay with […] enzyme; Lineweaver-Burk plots", "type": "biochemical"}, "[2]": {"substrate": "NCCCCN", "experiment": "Michaelis-Menten kinetics, N-hydroxyl putrescine formation by Csaky iodine oxidation assay (Km)", "type": "biochemical, Shewanella putrefaciens", "settings": "FAD"}, "[3]": {"settings": "NADPH putrescine binding pocket: Pro22, Phe23, Gly26, Leu399, Gly402 and Asn406 (docking)"}}, "note": "Where two headings read alike, the source gives them in different places.", "data": [{"molecule": "COc1cc(/C=C/C(=O)CC(=O)/C=C/c2ccc(O)c(OC)c2)ccc1O", "note": "[curcumin]", "values": [{"measurement": "Ki", "setting": "[1]", "value": "2.6 ± 0.0036", "unit": "µM"}]}, {"molecule": "C[C@@H]1O[C@@H](Oc2ccc(CC#N)cc2)[C@H](O)[C@H](O)[C@H]1O", "note": "[niazirin]", "values": [{"measurement": "Ki", "setting": "[1]; read-out: Ki", "value": "18.38 ± 0.008", "unit": "µM"}]}, {"molecule": "B1", "values": [{"measurement": "Km", "setting": "[2]; NADPH", "value": 3.81, "unit": "µM"}, {"measurement": "Vmax", "setting": "[2]; [3]", "value": 0.246, "unit": "µmol/min/mg"}, {"measurement": "kcat", "setting": "[2]; [3]", "value": 0.237, "unit": "s⁻¹"}]}]}
